Data as given in patent publication US20250042956A1 (University of California, published 2025).

T1: AT5G51230.1 EMF2 (Arabidopsis thaliana, UniProt Q8L6Y4 1-631)
T1 construct: Endogenous protein found by mass spectrometry; also called EMBRYONIC FLOWER 2
T1 sequence (looked up): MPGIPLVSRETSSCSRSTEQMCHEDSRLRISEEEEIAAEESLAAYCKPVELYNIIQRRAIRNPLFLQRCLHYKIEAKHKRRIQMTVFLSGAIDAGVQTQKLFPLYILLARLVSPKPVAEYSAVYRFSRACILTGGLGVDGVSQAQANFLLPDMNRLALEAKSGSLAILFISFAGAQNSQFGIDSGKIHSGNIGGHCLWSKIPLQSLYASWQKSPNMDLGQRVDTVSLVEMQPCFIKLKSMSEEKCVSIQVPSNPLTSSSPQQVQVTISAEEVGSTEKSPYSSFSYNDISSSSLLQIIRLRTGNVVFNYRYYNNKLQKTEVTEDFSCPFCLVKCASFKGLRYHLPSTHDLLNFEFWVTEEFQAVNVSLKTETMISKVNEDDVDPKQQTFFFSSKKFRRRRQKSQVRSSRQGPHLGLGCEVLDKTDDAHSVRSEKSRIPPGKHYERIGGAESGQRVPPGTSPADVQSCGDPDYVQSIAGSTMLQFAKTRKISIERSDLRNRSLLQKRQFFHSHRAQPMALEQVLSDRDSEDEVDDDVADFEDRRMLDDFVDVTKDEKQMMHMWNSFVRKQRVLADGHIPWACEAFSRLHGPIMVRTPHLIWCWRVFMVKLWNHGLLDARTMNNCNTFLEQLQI

T2: AT2G23380.1 CLF (Arabidopsis thaliana, UniProt P93831 1-902)
T2 construct: Endogenous protein found by mass spectrometry; also called CURLY LEAF
T2 sequence (looked up): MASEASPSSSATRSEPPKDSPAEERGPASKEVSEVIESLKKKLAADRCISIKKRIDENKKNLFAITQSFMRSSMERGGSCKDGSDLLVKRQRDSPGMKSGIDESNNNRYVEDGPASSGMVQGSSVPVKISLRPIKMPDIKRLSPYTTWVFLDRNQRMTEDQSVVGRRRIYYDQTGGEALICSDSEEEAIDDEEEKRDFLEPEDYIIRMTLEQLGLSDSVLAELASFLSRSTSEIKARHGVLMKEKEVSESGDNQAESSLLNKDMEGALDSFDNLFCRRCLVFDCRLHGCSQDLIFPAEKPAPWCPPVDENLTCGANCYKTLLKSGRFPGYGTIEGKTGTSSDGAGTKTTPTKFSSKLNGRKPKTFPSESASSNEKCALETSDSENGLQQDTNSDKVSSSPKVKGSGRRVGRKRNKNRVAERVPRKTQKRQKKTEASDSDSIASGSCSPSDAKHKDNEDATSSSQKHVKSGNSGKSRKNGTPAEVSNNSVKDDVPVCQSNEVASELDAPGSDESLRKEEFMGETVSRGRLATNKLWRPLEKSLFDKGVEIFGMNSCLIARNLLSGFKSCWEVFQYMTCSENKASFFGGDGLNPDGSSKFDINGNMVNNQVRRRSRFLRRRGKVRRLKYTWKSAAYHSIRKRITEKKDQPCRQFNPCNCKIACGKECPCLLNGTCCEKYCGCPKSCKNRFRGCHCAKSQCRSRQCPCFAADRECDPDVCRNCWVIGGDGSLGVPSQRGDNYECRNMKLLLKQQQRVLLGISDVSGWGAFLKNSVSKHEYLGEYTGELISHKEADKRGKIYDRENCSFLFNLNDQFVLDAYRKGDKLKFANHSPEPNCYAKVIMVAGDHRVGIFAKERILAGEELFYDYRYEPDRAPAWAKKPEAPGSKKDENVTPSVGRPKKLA

T3: AT4G35510.1 TRBIP1 (Arabidopsis thaliana)
T3 construct: Endogenous protein found by mass spectrometry
T3 chain: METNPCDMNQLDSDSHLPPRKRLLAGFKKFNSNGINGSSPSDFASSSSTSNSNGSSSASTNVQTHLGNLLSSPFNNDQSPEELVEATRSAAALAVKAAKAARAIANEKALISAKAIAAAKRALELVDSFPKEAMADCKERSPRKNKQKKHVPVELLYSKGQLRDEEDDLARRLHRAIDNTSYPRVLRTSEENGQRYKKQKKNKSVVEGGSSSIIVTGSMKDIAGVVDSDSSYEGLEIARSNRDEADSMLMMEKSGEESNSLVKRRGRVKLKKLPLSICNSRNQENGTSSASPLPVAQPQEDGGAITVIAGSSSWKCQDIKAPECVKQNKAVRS

T4: AT2G17540.2 TRBIP2 (Arabidopsis thaliana)
T4 construct: Endogenous protein found by mass spectrometry
T4 chain: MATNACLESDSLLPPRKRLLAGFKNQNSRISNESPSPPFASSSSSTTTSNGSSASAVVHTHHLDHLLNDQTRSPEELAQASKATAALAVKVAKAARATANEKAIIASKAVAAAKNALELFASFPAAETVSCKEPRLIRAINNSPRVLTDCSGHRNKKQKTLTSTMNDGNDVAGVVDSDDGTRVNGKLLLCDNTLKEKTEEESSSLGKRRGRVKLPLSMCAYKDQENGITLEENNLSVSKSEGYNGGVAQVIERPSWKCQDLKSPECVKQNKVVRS

T5: AT3G49850.1 TRB3 (Arabidopsis thaliana, UniProt Q9M2X3 1-295)
T5 construct: Endogenous protein found by mass spectrometry
T5 sequence: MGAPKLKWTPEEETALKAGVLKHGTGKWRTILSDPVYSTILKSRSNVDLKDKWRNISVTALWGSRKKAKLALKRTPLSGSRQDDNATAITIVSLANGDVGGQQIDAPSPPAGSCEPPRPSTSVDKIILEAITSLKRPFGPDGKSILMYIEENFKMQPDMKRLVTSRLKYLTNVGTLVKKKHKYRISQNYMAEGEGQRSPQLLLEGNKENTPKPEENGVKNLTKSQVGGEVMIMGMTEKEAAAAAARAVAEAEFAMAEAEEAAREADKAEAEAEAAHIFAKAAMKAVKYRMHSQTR

B1: FLAG-TRB1 (other, not shown: small tags and cut ends)
chain: MGAPKQKWTQEEESALKSGVIKHGPGKWRTILKDPEFSGVLYLRSNVDLKDKWRNMSVMANGWGSREKSRLAVKRTFSLPKQEENSLALTNSLQSDEENVDATSGLQVSSNPPPRRPNVRLDSLIMEAIATLKEPGGCNKTTIGAYIEDQYHAPPDFKRLLSTKLKYLTSCGKLVKVKRKYRIPNSTPLSSHRRKGLGVFGGKQRTSSLPSPKTDIDEVNFQTRSQIDTEIARMKSMNVHEAAAVAAQAVAEAEAAMAEAEEAAKEAEAAEAEAEAAQAFAEEASKTLKGRNICKMMIRA
notes: FLAG-tagged TRB1 from its native promoter in the trb1 mutant background; Printed both as TRB-FLAG and FLAG-TRB1; the vector description gives a C-terminal 3xFLAG-BLRP, so the tag position under the label FLAG-TRB1 is not certain; also called TRB1-FLAG; TRB-FLAG
B2: FLAG-TRB2 (other, not shown: small tags and cut ends)
chain: MGAPKQKWTPEEEAALKAGVLKHGTGKWRTILSDSEFSLILKSRSNVDLKDKWRNISVTALWGSRKKAKLALKRTPPGTKQDDNNTALTIVALTNDDERAKPTSPGGSGGGSPRTCASKRSITSLDKIIFEAITNLRELRGSDRTSIFLYIEENFKTPPNMKRHVAVRLKHLSSNGTLVKIKHKYRFSSNFIPAGARQKAPQLFLEGNNKKDPTKPEENGANSLTKFRVDGELYMIKGMTAQEAAEAAARAVAEAEFAITEAEQAAKEAERAEAEAEAAQIFAKAAMKALKFRIRNHPW
notes: FLAG-tagged TRB2 from its native promoter; tag position under the label FLAG-TRB2 not certain; also called TRB2-FLAG; TRB-FLAG

How the values were obtained:
AT5G51230.1 EMF2 [1] = target: T1, AT5G51230.1 EMF2; assay: IP-MS rep 1
Description: (§1) The method of IP-MS used in this Example has been described in a recent paper (see e.g., Xue, Nat. Comm., 2021). Ten grams of unopened floral buds from Col-0 wild type and FLAG-tag transgenic plants, including PHD1, MOM1, AIPP3, MOM2, MORC6, PIAL2, TRB1, TRB2, TRB3, JMJ14, HD2A, HD2B, and ELF7 were collected and ground into fine powder with liquid nitrogen. These samples were resuspended with 25 mL IP buffer and homogenized until lump-free by dounce homogenizer. The lysate was filtered through Miracloth and incubated with 250 μL anti-FLAG M2 magnetic beads (Sigma) at 4° C. for 2 hours. The magnetic beads were washed with IP buffer and eluted with TBS containing 250 μg/mL 3×FLAG peptides. The eluted proteins were precipitated with trichloroacetic acid (Sigma) and subject to MS analyses as described previously (see e.g., Xue, Nat. Comm., 2021).

AT2G23380.1 CLF [2] = target: T2, AT2G23380.1 CLF; assay: IP-MS rep 1
Description: as §1

AT4G35510.1 TRBIP1 [3] = target: T3, AT4G35510.1 TRBIP1; assay: IP-MS rep 1
Description: as §1

AT2G17540.2 TRBIP2 [4] = target: T4, AT2G17540.2 TRBIP2; assay: IP-MS rep 1
Description: as §1

AT3G49850.1 TRB3 [5] = target: T5, AT3G49850.1 TRB3; assay: IP-MS rep 1
Description: as §1

AT5G51230.1 EMF2 [6] = target: T1, AT5G51230.1 EMF2; assay: IP-MS rep 2
Description: as §1

AT2G23380.1 CLF [7] = target: T2, AT2G23380.1 CLF; assay: IP-MS rep 2
Description: as §1

AT4G35510.1 TRBIP1 [8] = target: T3, AT4G35510.1 TRBIP1; assay: IP-MS rep 2
Description: as §1

AT2G17540.2 TRBIP2 [9] = target: T4, AT2G17540.2 TRBIP2; assay: IP-MS rep 2
Description: as §1

AT3G49850.1 TRB3 [10] = target: T5, AT3G49850.1 TRB3; assay: IP-MS rep 2
Description: as §1

AT5G51230.1 EMF2 [11] = target: T1, AT5G51230.1 EMF2; assay: X-link IP-MS
AT2G23380.1 CLF [12] = target: T2, AT2G23380.1 CLF; assay: X-link IP-MS
AT4G35510.1 TRBIP1 [13] = target: T3, AT4G35510.1 TRBIP1; assay: X-link IP-MS
AT2G17540.2 TRBIP2 [14] = target: T4, AT2G17540.2 TRBIP2; assay: X-link IP-MS
AT3G49850.1 TRB3 [15] = target: T5, AT3G49850.1 TRB3; assay: X-link IP-MS
AT4G20400.1 JMJ14 [16] = target: T6, AT4G20400.1 JMJ14 (Arabidopsis thaliana, UniProt Q8GUI6 1-954); assay: IP-MS rep 1
T6 construct: Endogenous protein found by mass spectrometry; also called JUMONJI 14
Description: as §1

AT4G20400.1 JMJ14 [17] = target: T6, AT4G20400.1 JMJ14; assay: IP-MS rep 2
Description: as §1

AT4G20400.1 JMJ14 [18] = target: T6, AT4G20400.1 JMJ14; assay: X-link IP-MS

T6 sequence (Q8GUI6 whole entry): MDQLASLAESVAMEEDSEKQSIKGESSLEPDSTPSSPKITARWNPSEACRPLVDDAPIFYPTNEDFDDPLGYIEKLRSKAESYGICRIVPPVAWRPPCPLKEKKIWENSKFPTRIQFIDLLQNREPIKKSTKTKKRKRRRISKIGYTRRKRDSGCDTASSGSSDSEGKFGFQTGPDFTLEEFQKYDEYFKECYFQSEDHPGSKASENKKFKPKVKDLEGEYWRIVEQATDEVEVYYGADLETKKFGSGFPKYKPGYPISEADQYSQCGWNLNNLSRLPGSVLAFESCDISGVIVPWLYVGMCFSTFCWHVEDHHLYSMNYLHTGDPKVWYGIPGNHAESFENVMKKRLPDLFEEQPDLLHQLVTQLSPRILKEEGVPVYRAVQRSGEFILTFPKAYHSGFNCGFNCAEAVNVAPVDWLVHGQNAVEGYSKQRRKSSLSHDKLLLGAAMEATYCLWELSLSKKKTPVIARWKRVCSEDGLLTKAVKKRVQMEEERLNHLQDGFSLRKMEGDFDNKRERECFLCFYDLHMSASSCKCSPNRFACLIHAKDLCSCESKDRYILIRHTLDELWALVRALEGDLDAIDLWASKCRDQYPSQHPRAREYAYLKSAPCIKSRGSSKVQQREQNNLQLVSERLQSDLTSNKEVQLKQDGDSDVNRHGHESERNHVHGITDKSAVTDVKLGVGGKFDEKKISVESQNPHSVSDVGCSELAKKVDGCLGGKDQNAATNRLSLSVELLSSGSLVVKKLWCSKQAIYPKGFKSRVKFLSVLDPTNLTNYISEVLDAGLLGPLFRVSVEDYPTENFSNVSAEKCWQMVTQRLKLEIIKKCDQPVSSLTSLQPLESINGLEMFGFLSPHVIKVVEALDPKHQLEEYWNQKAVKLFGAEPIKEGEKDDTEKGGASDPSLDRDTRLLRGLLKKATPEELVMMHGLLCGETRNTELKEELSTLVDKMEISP

Row | Binder | IP-MS count (AT5G51230.1 EMF2 [1]) | IP-MS count (AT2G23380.1 CLF [2]) | IP-MS count (AT4G35510.1 TRBIP1 [3]) | IP-MS count (AT2G17540.2 TRBIP2 [4]) | IP-MS count (AT3G49850.1 TRB3 [5]) | IP-MS count (AT5G51230.1 EMF2 [6]) | IP-MS count (AT2G23380.1 CLF [7]) | IP-MS count (AT4G35510.1 TRBIP1 [8]) | IP-MS count (AT2G17540.2 TRBIP2 [9]) | IP-MS count (AT3G49850.1 TRB3 [10]) | IP-MS count (AT5G51230.1 EMF2 [11]) | IP-MS count (AT2G23380.1 CLF [12]) | IP-MS count (AT4G35510.1 TRBIP1 [13]) | IP-MS count (AT2G17540.2 TRBIP2 [14]) | IP-MS count (AT3G49850.1 TRB3 [15]) | IP-MS count (AT4G20400.1 JMJ14 [16]) | IP-MS count (AT4G20400.1 JMJ14 [17]) | IP-MS count (AT4G20400.1 JMJ14 [18])
1 | B1 | 0 | 0 | 5 | 18 | 0 | 0 | 0 | 11 | 22 | 0 | 0 | 0 | 0 | 0 | 0 | – | – | –
2 | B2 | – | – | 22 | 10 | – | – | – | 22 | 10 | – | – | – | 16 | 7 | – | 3 | 4 | 78
